According to patent US20250197488A1 (MABWELL SHANGHAI BIOSCIENCE, published 2025):
Changes are numbered by the printed parent chain.

T1: IL-11 (Cat. 12225-HNCE, Sino Biological Inc.) (UniProt P20809 22-199, limits assumed)
T1 sequence (looked up): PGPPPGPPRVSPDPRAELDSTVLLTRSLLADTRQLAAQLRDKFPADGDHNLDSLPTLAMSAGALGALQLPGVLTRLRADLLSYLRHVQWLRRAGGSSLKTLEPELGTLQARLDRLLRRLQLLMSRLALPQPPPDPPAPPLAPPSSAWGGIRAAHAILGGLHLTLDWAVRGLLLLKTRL

T2: human IL-11 (AAH12506.1, Pro22-Leu199) (human, UniProt P20809 22-199)
T2 construct: The range Pro22-Leu199 counts on AAH12506.1; The Octet runs say only 'human IL-11'; also called hIL-11
T2 chain: T1 sequence (looked up) with H154L

B1: hz8C8-VHm1 + hz8C8-VL (antibody, human IgG1, kappa, V domains shown)
VH: EVQLVESGGGLVQPGGSLRLSCAASGFTFSSFGMHWVRQAPGKGLEWVAYITPGSNTIYYADTVKGRFTISRDNAKNSLYLQMNSLRAEDTAVYYCAREYYSYDEGFAYWGQGTLVTVSS
VL: EIVLTQSPATLSLSPGERATLSCSVSSSISSNYLHWYQQKPGQAPRLLIYRTSNLASGIPARFSGSGSGTDFTLTISSLEPEDFAVYYCQQGVDVPFTFGQGTKLEIKR
notes: human IgG1 constant regions
B2: hz8C8-VHm1-m3 + hz8C8-VLm7-m3 (antibody, human IgG1, kappa, V domains shown)
VH: B1 VH with Y101S
VL: B1 VL with S27D, S28L, S30P, N32Q, R51G, T52A
notes: human IgG1 constant regions
B3: hz8C8-VHm1 + hz8C8-VLm7-m3 (antibody, human IgG1, kappa, V domains shown)
VH: B1 VH
VL: B1 VL with S27D, S28L, S30P, N32Q, R51G, T52A
notes: human IgG1 constant regions
B4: hz8C8-VHm1 + hz8C8-VLm7-m1 (antibody, human IgG1, kappa, V domains shown)
VH: B1 VH
VL: B1 VL with S27D, S28L, S30P, N32Q, T52A
notes: human IgG1 constant regions
B5: hz8C8-VHm1 + hz8C8-VLm2 (antibody, human IgG1, kappa, V domains shown)
VH: B1 VH
VL: B1 VL with N32K
notes: human IgG1 constant regions
B6: hz8C8-VHm1-m3 + hz8C8-VLm7-m2 (antibody, human IgG1, kappa, V domains shown)
VH: B1 VH with Y101S
VL: B1 VL with S27D, S28L, S30P, N32Q, R51D, T52A
notes: human IgG1 constant regions
B7: hz8C8-VHm1-m3 + hz8C8-VLm7 (antibody, human IgG1, kappa, V domains shown)
VH: B1 VH with Y101S
VL: B1 VL with S27D, S28L, S30P, N32Q
notes: human IgG1 constant regions
B8: hz8C8-VHm1-m3 + hz8C8-VLm7-m1 (antibody, human IgG1, kappa, V domains shown)
VH: B1 VH with Y101S
VL: B1 VL with S27D, S28L, S30P, N32Q, T52A
notes: human IgG1 constant regions
B9: hz8C8-VHm1 + hz8C8-VLm5 (antibody, human IgG1, kappa, V domains shown)
VH: B1 VH
VL: B1 VL with S27E, S28L, I29L, S31T
notes: human IgG1 constant regions
B10: hz8C8-VHm1 + hz8C8-VLm1 (antibody, human IgG1, kappa, V domains shown)
VH: B1 VH
VL: B1 VL with S30P
notes: human IgG1 constant regions
B11: hz8C8-VHm1 + hz8C8-VLm7-m2 (antibody, human IgG1, kappa, V domains shown)
VH: B1 VH
VL: B1 VL with S27D, S28L, S30P, N32Q, R51D, T52A
notes: human IgG1 constant regions
B12: hz8C8-VHm1-m2 + hz8C8-VLm7 (antibody, human IgG1, kappa, V domains shown)
VH: B1 VH with Y50S
VL: B1 VL with S27D, S28L, S30P, N32Q
notes: human IgG1 constant regions
B13: hz8C8-VHm1 + hz8C8-VLm4 (antibody, human IgG1, kappa, V domains shown)
VH: B1 VH
VL: B1 VL with S27D, S28L
notes: human IgG1 constant regions
B14: hz8C8-VHm1 + hz8C8-VLm7-m4 (antibody, human IgG1, kappa, V domains shown)
VH: B1 VH
VL: B1 VL with S27D, S28L, S30P, N32Q, L55R
notes: human IgG1 constant regions
B15: hz8C8-VHm1-m3 + hz8C8-VLm7-m4 (antibody, human IgG1, kappa, V domains shown)
VH: B1 VH with Y101S
VL: B1 VL with S27D, S28L, S30P, N32Q, L55R
notes: human IgG1 constant regions
B16: hz8C8-VHm1 + hz8C8-VLm7 (antibody, human IgG1, kappa, V domains shown)
VH: B1 VH
VL: B1 VL with S27D, S28L, S30P, N32Q
notes: human IgG1 constant regions; also called hz8C8m7
B17: hz8C8-VHm1 + hz8C8-VLm8 (antibody, human IgG1, kappa, V domains shown)
VH: B1 VH
VL: B1 VL with S27D, S28L, S30P, N32Q, H35S
notes: human IgG1 constant regions
B18: hz8C8-VHm1 + hz8C8-VLm3 (antibody, human IgG1, kappa, V domains shown)
VH: B1 VH
VL: B1 VL with S28L
notes: human IgG1 constant regions
B19: hz8C8-VHm1 + hz8C8-VLm9 (antibody, human IgG1, kappa, V domains shown)
VH: B1 VH
VL: B1 VL with S27D, S28L, S30P, N32Q, H35A
notes: human IgG1 constant regions
B20: hz8C8-VHm1 + hz8C8-VLm6 (antibody, human IgG1, kappa, V domains shown)
VH: B1 VH
VL: B1 VL with S28L, S30P, N32K
notes: human IgG1 constant regions
B21: hz8C8-VHm1-m1 + hz8C8-VLm7 (antibody, human IgG1, kappa, V domains shown)
VH: B1 VH with F32Y
VL: B1 VL with S27D, S28L, S30P, N32Q
notes: human IgG1 constant regions

biological target: T1, IL-11 (Cat. 12225-HNCE, Sino Biological …); assay: cell-based or functional assay

Row | Blocking activity (IC50), STAT3-luc reporter [µg/mL] | Binder
1 | 2.13 | B1
2 | 0.022 | B2
3 | 0.017 | B3
4 | 0.068 | B4
5 | 0.038 | B5
6 | 0.009 | B6
7 | 0.053 | B7
8 | 0.01 | B8
9 | 0.1 | B9
10 | 0.804 | B10
11 | 0.024 | B11
12 | 0.052 | B12
13 | 0.098 | B13
14 | 0.021 | B14
15 | 0.02 | B15
16 | 0.017 | B16
17 | 0.01 | B17
18 | 0.125 | B18
19 | 0.012 | B19
20 | 0.076 | B20
21 | 0.046 | B21

Biological target: T2, human IL-11 (AAH12506.1, Pro22-Leu199)
Assay: BLI (Octet), antibody captured, human IL-11 in solution
Method: The affinity of the murine antibodies purified from the hybridoma supernatants was determined using an Octet QKe System instrument from Fortebio Inc. with an anti-mouse IgG Fc Capture biosensor to capture the Fc fragments of the antibodies, for which an anti-IL-11 antibody named “3C6-mFc” recombinantly expressed was used at the same concentration as a positive control. Specifically, a hybridoma supernatant was diluted with HBS-EP+ buffer (GE), and was allowed to pass through the surface of AMC probes (Cat: 18-5088, PALL), and so the antibody in the hybridoma supernatant was captured on the surface of the probes; then, human IL-11 diluted in the HBS-EP+ buffer (300 nM) was used as a mobile phase to react with the antibody captured on the surface of the probes. Both the binding and the dissociating were conducted for 300 seconds. When the experiment was finished, data from which response values of blank controls had been deducted was fitted using a 1:1 Langmuir binding model by software, and then kinetic constants for antigen-antibody binding were calculated. Binding signals were detected on the Octet QKe System instrument with Hy5C2, Hy8C8, Hy16B5, Hy18A10, and Hy18H10.
The affinity of hz18A10 and hz8C8 was determined according to the method provided in Example 1 using AHC bioprobes for capturing human Fc fragment instead, with other conditions unchanged. A recombinantly expressed anti-IL-11 antibody 3C6-hFc was used at the same concentration as a positive control.
(§1) Then, light and heavy chain expression vectors for preparing mutant antibodies were constructed according to the method for preparing the recombinant antibodies provided in Example 4, using the mutant sequences shown in Table 3 which accordingly were linked with human IgG1 constant regions (SEQ ID NO. 13, and SEQ ID NO.14). Subsequently, the light chain and the heavy chain were reasonably matched and co-transfected into eukaryotic cells for transient expression, and then recombination protein samples of the mutant antibodies were obtained through affinity purification. The samples obtained were tested for affinity on Fortebio Octet, according to the method for measuring affinity provided in Example 1.

Row | Kd [nM] | koff [s⁻¹] | kon [M⁻¹ s⁻¹] | Binder
22 | 0.613 | 0.000472 | 770000 | B1
23 | < 0.001 | < 1e-07 | 972000 | B2
24 | 0.0795 | 8.99e-05 | 1.13e+06 | B3
25 | 0.13 | 0.000136 | 1.05e+06 | B4
26 | 0.388 | 0.000229 | 590000 | B5
27 | < 0.001 | < 1e-07 | 945000 | B6
28 | 0.0987 | 0.00011 | 1.12e+06 | B7
29 | 0.0609 | 5.81e-05 | 954000 | B8
30 | 0.479 | 0.000406 | 848000 | B9
31 | 0.178 | 0.000125 | 705000 | B10
32 | 0.0347 | 3.7e-05 | 1.07e+06 | B11
33 | 3.41 | 0.00355 | 1.04e+06 | B12
34 | 0.161 | 0.000141 | 874000 | B13
35 | 0.178 | 0.000178 | 1e+06 | B14
36 | < 0.001 | < 1e-07 | 901000 | B15
37 | 0.00429 | 3.52e-06 | 822000 | B16
38 | 0.0313 | 2.97e-05 | 948000 | B17
39 | 0.636 | 0.000496 | 780000 | B18
40 | 0.0354 | 3.45e-05 | 975000 | B19
41 | 0.0412 | 2.23e-05 | 543000 | B20
42 | 0.125 | 0.00013 | 1.04e+06 | B21

biological target: T1, IL-11 (Cat. 12225-HNCE, Sino Biological …); assay: competition ELISA, IL-11/IL-11Rα/GP130 complex
Method: The activity of the recombinant murine anti-IL-11 antibodies for blocking the formation of IL-11/IL-11Rα/GP130 complex was analyzed via competition ELISA. IL-11Rα-His (NP_004503.1, Met1-Val363, C-terminus-6-His Tag) was firstly added into ELISA plates to be coated overnight. Next day, samples were prepared as follows. […] After co-incubating and washing, an HRP conjugated anti-human Fc secondary antibody was added to develop the color which was then detected.
as §1, with “1. Further, using the protocol provided in Example 3, hz8C8 and its affinity matured mutants were analyzed for their activity for blocking the formation of IL-11/IL-11Rα/GP130 complex.” for “1.”

Row | IC50 [µg/mL] | Binder
43 | 2.09 | B1
44 | 0.78 | B2
45 | 0.73 | B3
46 | 0.58 | B4
47 | 1.14 | B5
48 | 0.67 | B6
49 | 0.83 | B7
50 | 0.55 | B8
51 | 0.838 | B9
52 | 1.24 | B10
53 | 0.74 | B11
54 | 1.68 | B12
55 | 0.846 | B13
56 | 0.69 | B14
57 | 0.47 | B15
58 | 0.85 | B16
59 | 0.7 | B17
60 | 0.943 | B18
61 | 0.72 | B19
62 | 1.01 | B20
63 | 0.75 | B21
